In patent US20140087995A1 (published 2014):
Numbered stars: 1 amine (or outer) side, 2 acyl side, 3 side chain; on linkers, the order of the positions; unused ones are H or OH. Bridge positions count the residues as written; N and C are the ends. Side chains are listed from the residue outwards. Ends that are not written are not given here. * marks the point of attachment. C20 diacid = O=C(O)CCCCCCCCCCCCCCCCCCC(=O)*; γGlu = O=C(O)[C@H](CCC(=O)[*:2])N[*:1]; AEEA = NCCOCCOCC(=O)O

Target: T1, human amylin 3(a) receptor (human calcitonin receptor co-expressed with RAMP-3) (human, UniProt P30988 25-474; O60896 24-148, limits assumed)
T1 sequence (looked up) 1: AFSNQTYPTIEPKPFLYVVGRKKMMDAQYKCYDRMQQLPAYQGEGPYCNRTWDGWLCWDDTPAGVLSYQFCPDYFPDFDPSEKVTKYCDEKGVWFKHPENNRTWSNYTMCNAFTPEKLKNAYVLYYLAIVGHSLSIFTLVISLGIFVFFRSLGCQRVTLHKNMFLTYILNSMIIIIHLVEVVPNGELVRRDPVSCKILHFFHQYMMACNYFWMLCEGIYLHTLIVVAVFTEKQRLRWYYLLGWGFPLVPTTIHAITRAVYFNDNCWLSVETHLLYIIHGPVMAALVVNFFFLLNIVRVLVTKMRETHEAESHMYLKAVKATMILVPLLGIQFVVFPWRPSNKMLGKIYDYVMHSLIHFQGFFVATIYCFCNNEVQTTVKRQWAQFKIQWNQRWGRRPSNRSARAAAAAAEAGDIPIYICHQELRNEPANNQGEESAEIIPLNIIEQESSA
T1 sequence (looked up) 2: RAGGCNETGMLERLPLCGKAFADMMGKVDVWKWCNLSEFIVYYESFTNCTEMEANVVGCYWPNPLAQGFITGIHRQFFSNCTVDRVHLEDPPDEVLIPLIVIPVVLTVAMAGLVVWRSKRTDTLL
Assay: cell-based or functional assay

Ratio hCT/hAmylin funct. (hCTR EC50 over hAmylin-R EC50)	hAmylin-R funct. EC50 (pM)	Binder
22.5	106	K([AEEA-γGlu-C20 diacid])CNTATCATQRLANFLRHSSPNFGAIPSSTPVGSNTY-NH2 (disulfide 2-7; N-terminus assumed; SMILES CC[C@H](C)[C@H](NC(=O)[C@H](C)NC(=O)CNC(=O)[C@H](Cc1ccccc1)NC(=O)[C@H](CC(N)=O)NC(=O)[C@@H]1CCCN1C(=O)[C@H](CO)NC(=O)[C@H](CO)NC(=O)[C@H](Cc1c[nH]cn1)NC(=O)[C@H](CCCNC(=N)N)NC(=O)[C@H](CC(C)C)NC(=O)[C@H](Cc1ccccc1)NC(=O)[C@H](CC(N)=O)NC(=O)[C@H](C)NC(=O)[C@H](CC(C)C)NC(=O)[C@H](CCCNC(=N)N)NC(=O)[C@H](CCC(N)=O)NC(=O)[C@@H](NC(=O)[C@H](C)NC(=O)[C@@H]1CSSC[C@H](NC(=O)[C@@H](N)CCCCNC(=O)COCCOCCNC(=O)CC[C@H](NC(=O)CCCCCCCCCCCCCCCCCCC(=O)O)C(=O)O)C(=O)N[C@@H](CC(N)=O)C(=O)N[C@@H]([C@@H](C)O)C(=O)N[C@@H](C)C(=O)N[C@@H]([C@@H](C)O)C(=O)N1)[C@@H](C)O)C(=O)N1CCC[C@H]1C(=O)N[C@@H](CO)C(=O)N[C@@H](CO)C(=O)N[C@H](C(=O)N1CCC[C@H]1C(=O)N[C@H](C(=O)NCC(=O)N[C@@H](CO)C(=O)N[C@@H](CC(N)=O)C(=O)N[C@H](C(=O)N[C@@H](Cc1ccc(O)cc1)C(N)=O)[C@@H](C)O)C(C)C)[C@@H](C)O, also called compound 49)
21.9	47	K([AEEA-γGlu-C20 diacid])CNTATCATQRLANFLRHSSPNFGAIPSSTNVGPHTY-NH2 (disulfide 2-7; N-terminus assumed; SMILES CC[C@H](C)[C@H](NC(=O)[C@H](C)NC(=O)CNC(=O)[C@H](Cc1ccccc1)NC(=O)[C@H](CC(N)=O)NC(=O)[C@@H]1CCCN1C(=O)[C@H](CO)NC(=O)[C@H](CO)NC(=O)[C@H](Cc1c[nH]cn1)NC(=O)[C@H](CCCNC(=N)N)NC(=O)[C@H](CC(C)C)NC(=O)[C@H](Cc1ccccc1)NC(=O)[C@H](CC(N)=O)NC(=O)[C@H](C)NC(=O)[C@H](CC(C)C)NC(=O)[C@H](CCCNC(=N)N)NC(=O)[C@H](CCC(N)=O)NC(=O)[C@@H](NC(=O)[C@H](C)NC(=O)[C@@H]1CSSC[C@H](NC(=O)[C@@H](N)CCCCNC(=O)COCCOCCNC(=O)CC[C@H](NC(=O)CCCCCCCCCCCCCCCCCCC(=O)O)C(=O)O)C(=O)N[C@@H](CC(N)=O)C(=O)N[C@@H]([C@@H](C)O)C(=O)N[C@@H](C)C(=O)N[C@@H]([C@@H](C)O)C(=O)N1)[C@@H](C)O)C(=O)N1CCC[C@H]1C(=O)N[C@@H](CO)C(=O)N[C@@H](CO)C(=O)N[C@H](C(=O)N[C@@H](CC(N)=O)C(=O)N[C@H](C(=O)NCC(=O)N1CCC[C@H]1C(=O)N[C@@H](Cc1c[nH]cn1)C(=O)N[C@H](C(=O)N[C@@H](Cc1ccc(O)cc1)C(N)=O)[C@@H](C)O)C(C)C)[C@@H](C)O, also called compound 58)
17.4	38	K([AEEA-γGlu-C20 diacid])CNTATCATQRLANFLRHSSPNFGAIPSSTNVGPNTY-NH2 (disulfide 2-7; N-terminus assumed; SMILES CC[C@H](C)[C@H](NC(=O)[C@H](C)NC(=O)CNC(=O)[C@H](Cc1ccccc1)NC(=O)[C@H](CC(N)=O)NC(=O)[C@@H]1CCCN1C(=O)[C@H](CO)NC(=O)[C@H](CO)NC(=O)[C@H](Cc1c[nH]cn1)NC(=O)[C@H](CCCNC(=N)N)NC(=O)[C@H](CC(C)C)NC(=O)[C@H](Cc1ccccc1)NC(=O)[C@H](CC(N)=O)NC(=O)[C@H](C)NC(=O)[C@H](CC(C)C)NC(=O)[C@H](CCCNC(=N)N)NC(=O)[C@H](CCC(N)=O)NC(=O)[C@@H](NC(=O)[C@H](C)NC(=O)[C@@H]1CSSC[C@H](NC(=O)[C@@H](N)CCCCNC(=O)COCCOCCNC(=O)CC[C@H](NC(=O)CCCCCCCCCCCCCCCCCCC(=O)O)C(=O)O)C(=O)N[C@@H](CC(N)=O)C(=O)N[C@@H]([C@@H](C)O)C(=O)N[C@@H](C)C(=O)N[C@@H]([C@@H](C)O)C(=O)N1)[C@@H](C)O)C(=O)N1CCC[C@H]1C(=O)N[C@@H](CO)C(=O)N[C@@H](CO)C(=O)N[C@H](C(=O)N[C@@H](CC(N)=O)C(=O)N[C@H](C(=O)NCC(=O)N1CCC[C@H]1C(=O)N[C@@H](CC(N)=O)C(=O)N[C@H](C(=O)N[C@@H](Cc1ccc(O)cc1)C(N)=O)[C@@H](C)O)C(C)C)[C@@H](C)O, also called compound 50)
32.5	169	K([AEEA-γGlu-C20 diacid])CNTATCATQRLAHFLRHSSPNFGAIPSSTNVGRNTY-NH2 (disulfide 2-7; N-terminus assumed; SMILES CC[C@H](C)[C@H](NC(=O)[C@H](C)NC(=O)CNC(=O)[C@H](Cc1ccccc1)NC(=O)[C@H](CC(N)=O)NC(=O)[C@@H]1CCCN1C(=O)[C@H](CO)NC(=O)[C@H](CO)NC(=O)[C@H](Cc1c[nH]cn1)NC(=O)[C@H](CCCNC(=N)N)NC(=O)[C@H](CC(C)C)NC(=O)[C@H](Cc1ccccc1)NC(=O)[C@H](Cc1c[nH]cn1)NC(=O)[C@H](C)NC(=O)[C@H](CC(C)C)NC(=O)[C@H](CCCNC(=N)N)NC(=O)[C@H](CCC(N)=O)NC(=O)[C@@H](NC(=O)[C@H](C)NC(=O)[C@@H]1CSSC[C@H](NC(=O)[C@@H](N)CCCCNC(=O)COCCOCCNC(=O)CC[C@H](NC(=O)CCCCCCCCCCCCCCCCCCC(=O)O)C(=O)O)C(=O)N[C@@H](CC(N)=O)C(=O)N[C@@H]([C@@H](C)O)C(=O)N[C@@H](C)C(=O)N[C@@H]([C@@H](C)O)C(=O)N1)[C@@H](C)O)C(=O)N1CCC[C@H]1C(=O)N[C@@H](CO)C(=O)N[C@@H](CO)C(=O)N[C@H](C(=O)N[C@@H](CC(N)=O)C(=O)N[C@H](C(=O)NCC(=O)N[C@@H](CCCNC(=N)N)C(=O)N[C@@H](CC(N)=O)C(=O)N[C@H](C(=O)N[C@@H](Cc1ccc(O)cc1)C(N)=O)[C@@H](C)O)C(C)C)[C@@H](C)O, also called compound 84)
17.4	54	K([AEEA-γGlu-C20 diacid])CNTATCATQRLAHFLRHSSPNFGAIPSSTNVGPNTY-NH2 (disulfide 2-7; N-terminus assumed; SMILES CC[C@H](C)[C@H](NC(=O)[C@H](C)NC(=O)CNC(=O)[C@H](Cc1ccccc1)NC(=O)[C@H](CC(N)=O)NC(=O)[C@@H]1CCCN1C(=O)[C@H](CO)NC(=O)[C@H](CO)NC(=O)[C@H](Cc1c[nH]cn1)NC(=O)[C@H](CCCNC(=N)N)NC(=O)[C@H](CC(C)C)NC(=O)[C@H](Cc1ccccc1)NC(=O)[C@H](Cc1c[nH]cn1)NC(=O)[C@H](C)NC(=O)[C@H](CC(C)C)NC(=O)[C@H](CCCNC(=N)N)NC(=O)[C@H](CCC(N)=O)NC(=O)[C@@H](NC(=O)[C@H](C)NC(=O)[C@@H]1CSSC[C@H](NC(=O)[C@@H](N)CCCCNC(=O)COCCOCCNC(=O)CC[C@H](NC(=O)CCCCCCCCCCCCCCCCCCC(=O)O)C(=O)O)C(=O)N[C@@H](CC(N)=O)C(=O)N[C@@H]([C@@H](C)O)C(=O)N[C@@H](C)C(=O)N[C@@H]([C@@H](C)O)C(=O)N1)[C@@H](C)O)C(=O)N1CCC[C@H]1C(=O)N[C@@H](CO)C(=O)N[C@@H](CO)C(=O)N[C@H](C(=O)N[C@@H](CC(N)=O)C(=O)N[C@H](C(=O)NCC(=O)N1CCC[C@H]1C(=O)N[C@@H](CC(N)=O)C(=O)N[C@H](C(=O)N[C@@H](Cc1ccc(O)cc1)C(N)=O)[C@@H](C)O)C(C)C)[C@@H](C)O, also called compound 68)
56.3	666	K([AEEA-γGlu-C20 diacid])CNTATCATQRLAKFLRHSSPNFGAIPSSTPVGSNTY-NH2 (disulfide 2-7; N-terminus assumed; SMILES CC[C@H](C)[C@H](NC(=O)[C@H](C)NC(=O)CNC(=O)[C@H](Cc1ccccc1)NC(=O)[C@H](CC(N)=O)NC(=O)[C@@H]1CCCN1C(=O)[C@H](CO)NC(=O)[C@H](CO)NC(=O)[C@H](Cc1c[nH]cn1)NC(=O)[C@H](CCCNC(=N)N)NC(=O)[C@H](CC(C)C)NC(=O)[C@H](Cc1ccccc1)NC(=O)[C@H](CCCCN)NC(=O)[C@H](C)NC(=O)[C@H](CC(C)C)NC(=O)[C@H](CCCNC(=N)N)NC(=O)[C@H](CCC(N)=O)NC(=O)[C@@H](NC(=O)[C@H](C)NC(=O)[C@@H]1CSSC[C@H](NC(=O)[C@@H](N)CCCCNC(=O)COCCOCCNC(=O)CC[C@H](NC(=O)CCCCCCCCCCCCCCCCCCC(=O)O)C(=O)O)C(=O)N[C@@H](CC(N)=O)C(=O)N[C@@H]([C@@H](C)O)C(=O)N[C@@H](C)C(=O)N[C@@H]([C@@H](C)O)C(=O)N1)[C@@H](C)O)C(=O)N1CCC[C@H]1C(=O)N[C@@H](CO)C(=O)N[C@@H](CO)C(=O)N[C@H](C(=O)N1CCC[C@H]1C(=O)N[C@H](C(=O)NCC(=O)N[C@@H](CO)C(=O)N[C@@H](CC(N)=O)C(=O)N[C@H](C(=O)N[C@@H](Cc1ccc(O)cc1)C(N)=O)[C@@H](C)O)C(C)C)[C@@H](C)O, also called compound 74)
